Data: IntAct's records for PubMed 38225382

What was measured:
pex3_human PEX3 = pex3_human PEX3 (UniProt P56589)
tri37_human TRIM37 = tri37_human TRIM37 (UniProt O94972)
Chain of tri37_human TRIM37 (O94972 whole entry): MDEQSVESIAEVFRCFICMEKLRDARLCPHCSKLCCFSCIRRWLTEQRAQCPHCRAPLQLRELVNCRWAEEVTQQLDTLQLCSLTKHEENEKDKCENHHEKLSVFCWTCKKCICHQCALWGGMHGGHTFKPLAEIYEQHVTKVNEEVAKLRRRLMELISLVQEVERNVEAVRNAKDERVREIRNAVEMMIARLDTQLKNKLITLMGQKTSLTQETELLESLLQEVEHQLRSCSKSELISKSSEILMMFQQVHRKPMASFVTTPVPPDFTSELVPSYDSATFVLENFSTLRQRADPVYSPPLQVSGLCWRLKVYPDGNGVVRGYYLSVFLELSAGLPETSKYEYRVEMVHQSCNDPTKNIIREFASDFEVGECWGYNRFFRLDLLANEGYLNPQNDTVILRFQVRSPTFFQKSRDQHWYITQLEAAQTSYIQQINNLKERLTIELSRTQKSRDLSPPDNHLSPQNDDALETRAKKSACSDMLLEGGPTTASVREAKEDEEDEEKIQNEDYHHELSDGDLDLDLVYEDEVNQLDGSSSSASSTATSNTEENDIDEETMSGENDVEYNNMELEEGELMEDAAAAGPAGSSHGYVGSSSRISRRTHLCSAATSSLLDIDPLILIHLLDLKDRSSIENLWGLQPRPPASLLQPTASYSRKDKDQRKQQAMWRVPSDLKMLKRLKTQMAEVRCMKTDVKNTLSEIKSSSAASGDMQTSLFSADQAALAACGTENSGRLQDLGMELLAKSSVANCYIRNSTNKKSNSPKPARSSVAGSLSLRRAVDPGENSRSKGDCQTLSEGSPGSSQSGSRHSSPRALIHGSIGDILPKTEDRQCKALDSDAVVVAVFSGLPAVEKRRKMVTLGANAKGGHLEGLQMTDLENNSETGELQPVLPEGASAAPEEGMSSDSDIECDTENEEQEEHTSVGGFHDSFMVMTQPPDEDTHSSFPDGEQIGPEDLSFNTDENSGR

Chain of pex3_human PEX3 (P56589 whole entry): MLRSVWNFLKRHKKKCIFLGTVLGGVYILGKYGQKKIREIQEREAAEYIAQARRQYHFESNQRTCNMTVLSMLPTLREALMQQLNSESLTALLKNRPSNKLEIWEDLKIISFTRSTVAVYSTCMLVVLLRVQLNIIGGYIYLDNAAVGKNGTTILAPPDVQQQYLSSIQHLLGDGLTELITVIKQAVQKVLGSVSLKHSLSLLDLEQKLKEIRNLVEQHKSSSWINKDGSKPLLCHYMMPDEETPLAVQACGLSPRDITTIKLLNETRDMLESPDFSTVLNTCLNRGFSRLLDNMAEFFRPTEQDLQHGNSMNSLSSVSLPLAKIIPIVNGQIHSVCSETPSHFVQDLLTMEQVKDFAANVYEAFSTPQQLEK
Chain of Peroxisomal membrane protein PEX16 (Homo sapiens), Q9Y5Y5 K169A (Q9Y5Y5 whole entry K169A): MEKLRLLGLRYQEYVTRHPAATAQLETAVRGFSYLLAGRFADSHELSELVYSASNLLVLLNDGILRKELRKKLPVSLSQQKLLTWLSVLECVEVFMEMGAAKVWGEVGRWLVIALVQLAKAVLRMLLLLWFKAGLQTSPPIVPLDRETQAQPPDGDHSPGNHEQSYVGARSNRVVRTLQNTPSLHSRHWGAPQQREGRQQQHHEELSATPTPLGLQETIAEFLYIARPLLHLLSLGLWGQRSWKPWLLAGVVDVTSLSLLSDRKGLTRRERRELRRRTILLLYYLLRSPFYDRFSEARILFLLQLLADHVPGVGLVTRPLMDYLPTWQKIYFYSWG
Chain of Peroxisomal membrane protein PEX16 (Homo sapiens), Q9Y5Y5 W189G (Q9Y5Y5 whole entry W189G): as the sequence (Q9Y5Y5 whole entry K169A) above, with A169K, W189G counted along it

effect of a mutation on the interaction (pex3_human PEX3)	effect of a mutation on the interaction (tri37_human TRIM37)	Substance
with no effect		Peroxisomal membrane protein PEX16 (Homo sapiens), Q9Y5Y5 W189G
with no effect		Peroxisomal membrane protein PEX16 (Homo sapiens), Q9Y5Y5 K169A
	with no effect	Bifunctional polynucleotide phosphatase/kinase (Homo sapiens), Q96T60 S114D
	with no effect	Bifunctional polynucleotide phosphatase/kinase (Homo sapiens), Q96T60 P112R
